Measured values from article PMC4318144 (Genes & Development, 2015).

Molecular target: the molecule itself
Test: cryo-EM structure

B1: Dark protein, full-length (residues 1–1440) (natural protein, D. melanogaster, UniProt Q7KLI1 1-1440, looked up)
chain: MDFETGEHQYQYKDILSVFEDAFVDNFDCKDVQDMPKSILSKEEIDHIIMSKDAVSGTLRLFWTLLSKQEEMVQKFVEEVLRINYKFLMSPIKTEQRQPSMMTRMYIEQRDRLYNDNQVFAKYNVSRLQPYLKLRQALLELRPAKNVLIDGVLGSGKTWVALDVCLSYKVQCKMDFKIFWLNLKNCNSPETVLEMLQKLLYQIDPNWTSRSDHSSNIKLRIHSIQAELRRLLKSKPYENCLLVLLNVQNAKAWNAFNLSCKILLTTRFKQVTDFLSAATTTHISLDHHSMTLTPDEVKSLLLKYLDCRPQDLPREVLTTNPRRLSIIAESIRDGLATWDNWKHVNCDKLTTIIESSLNVLEPAEYRKMFDRLSVFPPSAHIPTILLSLIWFDVIKSDVMVVVNKLHKYSLVEKQPKESTISIPSIYLELKVKLENEYALHRSIVDHYNIPKTFDSDDLIPPYLDQYFYSHIGHHLKNIEHPERMTLFRMVFLDFRFLEQKIRHDSTAWNASGSILNTLQQLKFYKPYICDNDPKYERLVNAILDFLPKIEENLICSKYTDLLRIALMAEDEAIFEEAHKQVQRFDDRVWFTNHGRFHQHRQIINLGDNEGRHAVYLHNDFCLIALASGQILLTDVSLEGEDTYLLRDESDSSDILRMAVFNQQKHLITLHCNGSVKLWSLWPDCPGRRHSGGSKQQLVNSVVKRFIGSYANLKIVAFYLNEDAGLPEANIQLHVAFINGDVSILNWDEQDQEFKLSHVPVLKTMQSGIRCFVQVLKRYYVVCTSNCTLTVWDLTNGSSNTLELHVFNVENDTPLALDVFDERSKTATVLLIFKYSVWRLNFLPGLSVSLQSEAVQLPEGSFITCGKRSTDGRYLLLGTSEGLIVYDLKISDPVLRSNVSEHIECVDIYELFDPVYKYIVLCGAKGKQVVHVHTLRSVSGSNSHQNREIAWVHSADEISVMTKACLEPNVYLRSLMDMTRERTQLLAVDSKERIHLIKPAISRISEWSTITPTHAASNCKINAISAFNDEQIFVGYVDGVIIDVIHDTALPQQFIEEPIDYLKQVSPNILVASAHSAQKTVIFQLEKIDPLQPNDQWPLMMDVSTKYASLQEGQYIILFSDHGVCHLDIANPSAFVKPKDSEEYIVGFDLKNSLLFLAYENNIIDVFRLIFSCNQLRYEQICEEEIAQKAKISYLVATDDGTMLAMGFENGTLELFAVENRKVQLIYSIEEVHEHCIRQLLFSPCKLLLISCAEQLCFWNVTHMRNNQLEREQKRRRSRRHKQHSVTQEDAVDAAPIAADIDVDVTFVADEFHPVNRGTAELWRNKRGNAIRPELLACVKFVGNEARQFFTDAHFSHFYAIDDEGVYYHLQLLELSRLQPPPDPVTLDIANQYEDLKNLRILDSPLMQDSDSEGADVVGNLVLEKNGGVARATPILEEASS
stoichiometry N: 16
